Test results as given in article PMC9065133.
Where “and” joins values, the source holds several entries; their conditions need not be identical. Equal entries are not always repeated.

Key:
Assay in all cases: SEC-MALLS
MVV IN Y261A = conditions: IN injected at 2 mg/mL (bar); Superdex-200 column; parent: est. 170; read off a plot
MVV IN E154Q = conditions: IN injected at 2 mg/mL (bar); Superdex-200 column; parent: est. 170; read off a plot
MVV IN H12N = conditions: IN injected at 2 mg/mL (bar); Superdex-200 column; parent: est. 170; read off a plot
MVV IN QQ207GP = conditions: IN injected at 2 mg/mL (bar); Superdex-200 column; parent: est. 170; read off a plot
MVV IN V252A = conditions: IN injected at 2 mg/mL (bar); Superdex-200 column; parent: est. 170; read off a plot
MVV IN V263E = conditions: IN injected at 2 mg/mL (bar); Superdex-200 column; parent: est. 170; read off a plot
[1] = biological target: MVV IN H12N (maedi-visna virus (KV1772 isolate))
MVV IN F223A = conditions: IN injected at 2 mg/mL (bar); Superdex-200 column; parent: est. 170; read off a plot
MVV IN W245E = conditions: IN injected at 2 mg/mL (bar); Superdex-200 column; parent: est. 170; read off a plot
MVV IN W245L = conditions: IN injected at 2 mg/mL (bar); Superdex-200 column; parent: est. 170; read off a plot
[2] = biological target: maedi-visna virus (MVV) integrase, wild type, KV1772 isolate (maedi-visna virus (KV1772 isolate))
[3] = biological target: MVV IN QQ207GP (maedi-visna virus (KV1772 isolate))
MVV IN Y261E = conditions: IN injected at 2 mg/mL (bar); Superdex-200 column; parent: est. 170; read off a plot
MVV IN Y225A = conditions: IN injected at 2 mg/mL (bar); Superdex-200 column; parent: est. 170; read off a plot
[4] = biological target: MVV IN chimera QQQ211PFV304-314 (portion of the PFV IN CCD-CTD linker between MVV IN Gln210 and Gln214) (maedi-visna virus (KV1772 isolate) | prototype foamy virus (PFV))
MVV IN W245A = conditions: IN injected at 2 mg/mL (bar); Superdex-200 column; parent: est. 170; read off a plot
MVV IN QQQ211PGG = conditions: IN injected at 2 mg/mL (bar); Superdex-200 column; parent: est. 170; read off a plot
MVV IN V252D = conditions: IN injected at 2 mg/mL (bar); Superdex-200 column; parent: est. 170; read off a plot
[5] = biological target: MVV IN QQQ211PGG (maedi-visna virus (KV1772 isolate))
MVV IN R231E = conditions: IN injected at 2 mg/mL (bar); Superdex-200 column; parent: est. 170; read off a plot
MVV IN I272E = conditions: IN injected at 2 mg/mL (bar); Superdex-200 column; parent: est. 170; read off a plot

maedi-visna virus (MVV) integrase, wild type, KV1772 isolate, sequence (P03370 1226-1506 limits assumed): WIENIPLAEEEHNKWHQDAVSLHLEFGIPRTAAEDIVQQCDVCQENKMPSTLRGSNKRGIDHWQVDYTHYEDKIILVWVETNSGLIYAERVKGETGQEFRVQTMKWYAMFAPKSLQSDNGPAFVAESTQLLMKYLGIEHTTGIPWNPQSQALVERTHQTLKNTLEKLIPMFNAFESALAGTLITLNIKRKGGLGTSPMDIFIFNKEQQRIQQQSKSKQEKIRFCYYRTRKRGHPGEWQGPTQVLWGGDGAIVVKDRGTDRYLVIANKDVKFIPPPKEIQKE

Q: For “maedi-visna virus (MVV) integrase, wild type, KV1772 isolate Y261A”, which other: average molecular mass (MVV IN Y261A) is on record?
A: 100 kDa

Q: Which other: average molecular mass (MVV IN E154Q) does the source give for “maedi-visna virus (MVV) integrase, wild type, KV1772 isolate E154Q” here?
A: 180 kDa

Q: With “maedi-visna virus (MVV) integrase, wild type, KV1772 isolate H12N” as the substance, how does the other: average molecular mass (MVV IN H12N) read?
A: 40 kDa

Q: How did the other: average molecular mass (MVV IN QQ207GP) turn out when “maedi-visna virus (MVV) integrase, wild type, KV1772 isolate Q207G; Q208P” was run?
A: 65 kDa

Q: “maedi-visna virus (MVV) integrase, wild type, KV1772 isolate V252A” was tested. Which other: average molecular mass (MVV IN V252A) did it give?
A: 120 kDa

Q: For “maedi-visna virus (MVV) integrase, wild type, KV1772 isolate V263E”, which other: average molecular mass (MVV IN V263E) is on record?
A: 110 kDa

Q: With MVV IN H12N (enzyme) as the substance, how does the stoichiometry N [1] read?
A: 2

Q: “maedi-visna virus (MVV) integrase, wild type, KV1772 isolate F223A” was tested. Which other: average molecular mass (MVV IN F223A) did it give?
A: 120 kDa

Q: With “maedi-visna virus (MVV) integrase, wild type, KV1772 isolate W245E” as the substance, how does the other: average molecular mass (MVV IN W245E) read?
A: 90 kDa

Q: With “maedi-visna virus (MVV) integrase, wild type, KV1772 isolate W245L” as the substance, how does the other: average molecular mass (MVV IN W245L) read?
A: 110 kDa

Q: How did the stoichiometry N [2] turn out when “maedi-visna virus (MVV) integrase, wild type, KV1772 isolate (enzyme)” was run?
A: 4 and 8

Q: How did the stoichiometry N [3] turn out when MVV IN QQ207GP (enzyme) was run?
A: 2

Q: “maedi-visna virus (MVV) integrase, wild type, KV1772 isolate Y261E” was tested. Which other: average molecular mass (MVV IN Y261E) did it give?
A: 78 kDa

Q: For “maedi-visna virus (MVV) integrase, wild type, KV1772 isolate Y225A”, which other: average molecular mass (MVV IN Y225A) is on record?
A: 120 kDa

Q: How did the stoichiometry N [4] turn out when “MVV IN chimera QQQ211PFV304-314 (portion of the PFV IN CCD-CTD linker between MVV IN Gln210 and Gln214) (enzyme)” was run?
A: 2

Q: How did the other: average molecular mass (MVV IN W245A) turn out when “maedi-visna virus (MVV) integrase, wild type, KV1772 isolate W245A” was run?
A: 120 kDa

Q: “maedi-visna virus (MVV) integrase, wild type, KV1772 isolate Q211P; Q212G; Q213G” was tested. Which other: average molecular mass (MVV IN QQQ211PGG) did it give?
A: 65 kDa

Q: “maedi-visna virus (MVV) integrase, wild type, KV1772 isolate V252D” was tested. Which other: average molecular mass (MVV IN V252D) did it give?
A: 80 kDa

Q: MVV IN QQQ211PGG (enzyme) was tested. Which stoichiometry N [5] did it give?
A: 2

Q: With “maedi-visna virus (MVV) integrase, wild type, KV1772 isolate R231E” as the substance, how does the other: average molecular mass (MVV IN R231E) read?
A: 180 kDa

Q: With “maedi-visna virus (MVV) integrase, wild type, KV1772 isolate I272E” as the substance, how does the other: average molecular mass (MVV IN I272E) read?
A: 100 kDa
